T1: human LAP-TGFβ3 overexpressed on HT1080 cells (human, UniProt P10600 24-412)
T1 construct: also called HT1080-huB3
T1 sequence: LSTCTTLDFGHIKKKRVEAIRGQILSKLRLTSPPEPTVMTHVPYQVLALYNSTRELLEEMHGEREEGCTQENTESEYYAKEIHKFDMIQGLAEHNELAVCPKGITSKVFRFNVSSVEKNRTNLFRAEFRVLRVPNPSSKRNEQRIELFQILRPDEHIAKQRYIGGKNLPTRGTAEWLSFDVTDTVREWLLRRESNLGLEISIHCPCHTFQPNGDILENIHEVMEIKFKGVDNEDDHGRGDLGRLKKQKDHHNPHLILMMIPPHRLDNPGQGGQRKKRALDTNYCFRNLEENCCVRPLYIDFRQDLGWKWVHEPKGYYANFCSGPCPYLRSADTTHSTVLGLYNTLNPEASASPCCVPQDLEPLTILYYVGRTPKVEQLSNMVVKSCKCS


Legend:
[1] = molecular target: T2, fusion protein of a human IgG1 Fc domain and rat LAP-TGFβ1 (human; rat, UniProt P17246 30-390, limits assumed); experiment: BLI, 2:1 model, component 2
T2 construct: also called rat LAP-TGFβ-Fc
Protocol: (§1) The 20E6_H0.2aL1_IgG1 antibody was biotinylated using EZ-Link SulfoNHS-LC-Biotin (ThermoFisher). A streptavidin-functionalized tip was equilibrated in binding buffer (10 mM sodium phosphate, 150 mM sodium chloride, 1% (w/v) bovine serum albumin, 0.05% (w/v) sodium azide, pH 7.4) and dipped in a 10 μg/mL solution of biotinylated anti-LAP in binding buffer for 30 seconds to load the tip with antibody. The antibody-loaded tip was then washed in binding buffer and placed in a solution containing 0-24 nM of a fusion protein having a human IgG1 Fc domain fused to either human LAP-TGFβ1, human LAP-TGFβ2 or human LAP-TGFβ3. The antigen was allowed to bind to antibody for 5 minutes (association phase), and then the tip was moved to binding buffer (dissociation phase). The association and dissociation phases were fit to a 2:1 heterogenous ligand binding model to determine the binding rate constants. As shown in FIG. 21A and Table 17, 20E6_H0.2aL1_IgG1 bound with sub-nanomolar affinity to human LAP-TGFβ1, but not to human LAP-TGFβ2 (FIG. 21B) or LAP-TGFβ3 (FIG. 21C).
(§2) The binding of 20E6_H0.2aL1_IgG1 antibody and 20E6_H0.2aL1_hIgG4mut antibody to LAP-TGFβ1 of various species was examined by bio-layer interferometry using the method described in Example 12, except that the antibody-loaded tip was placed in a solution containing 0-24 nM of a fusion protein having a human IgG1 Fc domain fused to either mouse, rat, cynomolgus monkey, or human LAP-TGFβ1.

[2] = molecular target: T3, fusion protein of a human IgG1 Fc domain and human LAP-TGFβ1 (human, UniProt P01137 30-390); experiment: BLI, 2:1 model, component 2
T3 construct: printed both as Fc-huB1 and LAP-TGFβ-Fc; also called Fc-huB1; Fc-human LAP
Protocol: as §1, §2

[3] = molecular target: T4, fusion protein of a human IgG1 Fc domain and cynomolgus monkey LAP-TGFβ1 (human; cynomolgus monkey); experiment: BLI, 2:1 model, component 2
T4 construct: also called cynomolgus monkey LAP-TGFβ-Fc
Protocol: as §1, §2

[4] = molecular target: T5, fusion protein of a human IgG1 Fc domain and mouse LAP-TGFβ1 (human; mouse, UniProt P04202 30-390); experiment: BLI, 2:1 model, component 2
T5 construct: also called mouse LAP-TGFβ-Fc
Protocol: as §1, §2

[5] = molecular target: T6, mature human TGFβ1 (free TGFβ1, without LAP) (human, UniProt P01137 279-390); experiment: TGFβ1 ELISA after pre-incubation of 1000 pg mature TGFβ1 with antibody; loss of signal reflects binding
T6 construct: also called mature TGFβ; free human TGFβ1
Protocol: To determine whether anti-LAP antibodies 28G11_hIgG1, 22F9_hIgG1, 20E6_hIgG1, 17G8_hIgG1, and 24E3_hIgG1, bind to free human TGFβ1 (i.e., mature TGFβ1 that lacks LAP), the ability of the antibodies to inhibit an anti-TGFβ ELISA was evaluated. Briefly, mature TGFβ1 (1000 pg) was incubated with the indicated anti-LAP antibodies at 10 μg/mL, an isotype control antibody as a negative control or the commercially available anti-TGFβ antibody 1D11 as a positive control for 10 minutes on ice. For example, the 1D11 antibody is commercially available from any number of sellers, for example Bio x Cell Inc. (West Lebanon, N.H.). Supernatants were assayed in a TGFβ1 ELISA (R&D Systems) according to the manufacturer instructions to measure free TGFβ1. […] Note that Figure and FIG. are used interchangeably in this application.

[6] = molecular target: T1, human LAP-TGFβ3 overexpressed on HT1080 …; experiment: flow cytometry titration, HT1080-huB3 cells
Protocol: This Example describes the binding of anti-LAP antibodies to LAP-TGFβ isoforms and LAP-TGFβ variants. In addition to antibodies 28G11_hIgG1, 22F9_hIgG1, and 20E6_hIgG1, anti-LAP antibodies 17G8_hIgG1, 24E3_hIgG1, and 2C9_(hyb) were also tested in this experiment. Briefly, 4×10⁵ each of (a) HT1080 cells, (b) HT1080 cells overexpressing human LAP-TGFβ1, (c) HT1080 cells overexpressing human LAP-TGFβ2, (d) HT1080 cells overexpressing human LAP-TGFβ3, (e) HT1080 cells overexpressing murine LAP-TGFβ1, (f) P3U1 cells, (g) P3U1 cells overexpressing LAP-TGFβ1 and GARP, and (h) P3U1 cells overexpressing LAP-TGFβ1 and LRRC33 were cultured in 96-well plates. The plates were centrifuged for 5 min at 1,500 rpm, liquid was removed, and cells were resuspended with 200 μL FACS buffer. The plates were centrifuged again, diluted primary antibody was added to each well, and the plates were incubated on ice for 20 minutes, followed by centrifugation. The cells were resuspended in 200 μL FACS buffer, centrifuged again, and resuspended in 50 μL diluted secondary antibody (Alexa647-anti-Human IgG or APC-anti-Mouse IgG). The plates were incubated on ice for 20 minutes in the dark, washed twice with 200 μL FACS buffer, and cells from each well (in 200 μL FACS buffer) were read on the Attune NXT instrument.

T2 sequence (P17246 30-390 limits assumed): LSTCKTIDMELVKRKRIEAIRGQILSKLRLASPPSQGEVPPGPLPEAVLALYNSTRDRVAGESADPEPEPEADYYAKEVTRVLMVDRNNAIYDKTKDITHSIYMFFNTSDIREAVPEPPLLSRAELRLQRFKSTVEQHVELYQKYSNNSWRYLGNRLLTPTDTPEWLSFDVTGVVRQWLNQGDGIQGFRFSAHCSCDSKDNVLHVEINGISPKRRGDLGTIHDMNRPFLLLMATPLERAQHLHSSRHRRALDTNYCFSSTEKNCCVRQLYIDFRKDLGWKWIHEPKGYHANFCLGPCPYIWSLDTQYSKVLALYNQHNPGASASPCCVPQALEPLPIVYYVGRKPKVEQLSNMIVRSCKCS
T5 sequence (P04202 30-390 limits assumed): as the sequence (P17246 30-390 limits assumed) above, with D93E, T99S, F131L, T134S, V202K counted along it
T3 sequence (P01137 30-390 limits assumed): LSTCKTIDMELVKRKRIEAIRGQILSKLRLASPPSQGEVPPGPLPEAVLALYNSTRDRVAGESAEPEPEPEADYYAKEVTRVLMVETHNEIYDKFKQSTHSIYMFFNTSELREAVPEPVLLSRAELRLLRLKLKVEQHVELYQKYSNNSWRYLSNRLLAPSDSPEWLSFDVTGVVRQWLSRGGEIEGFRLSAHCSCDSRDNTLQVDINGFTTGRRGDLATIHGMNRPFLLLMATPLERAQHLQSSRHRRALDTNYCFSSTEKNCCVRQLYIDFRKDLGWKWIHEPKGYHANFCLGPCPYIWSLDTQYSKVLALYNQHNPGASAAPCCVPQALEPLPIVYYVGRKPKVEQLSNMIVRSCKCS
T6 sequence (P01137 279-390 limits assumed): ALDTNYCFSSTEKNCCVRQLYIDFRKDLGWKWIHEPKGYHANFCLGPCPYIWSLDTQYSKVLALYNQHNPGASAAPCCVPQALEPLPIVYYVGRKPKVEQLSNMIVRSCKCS

Binder	Kd [1] [pM]	koff [1] [s⁻¹]	kon [1] [M⁻¹ s⁻¹]	Kd [2] [pM]	koff [2] [s⁻¹]	kon [2] [M⁻¹ s⁻¹]	Kd [3] [pM]	koff [3] [s⁻¹]	kon [3] [M⁻¹ s⁻¹]	Kd [4] [pM]	koff [4] [s⁻¹]	kon [4] [M⁻¹ s⁻¹]	binding result [5]	binding result [6]
20E6_H0.2aL1_hIgG1 (antibody, also called 20E6_H0.2aL1_IgG1; humanized 20E6) heavy: not shown light: DIQMTQSPSSLSASVGDRVTITCRASQDITNYLNWYQQKPGKAVKLLIYYTSRLHSGVPSRFSGSGSGTDYTLTISSLQPEDFATYFCQQGDTLPWTFGQGTKLEIKRTVAAPSVFIFPPSDEQLKSGTASVVCLLNNFYPREAKVQWKVDNALQSGNSQESVTEQDSKDSTYSLSSTLTLSKADYEKHKVYACEVTHQGLSSPVTKSFNRGEC	680	0.000768	1.14e+06	970	0.000657	680000	710	0.000728	1.03e+06	560	0.00039	700000	–	–
22F9_hIgG1 (antibody, V domains shown) VH: QVQLQQPGAELVKPGASVKLSCKASGYTFTSYWMHWVKQRPGQGLEWIGMIHPNSGSTNYNEKFKSKATLTVDKSSSTAYMQLSSLTSEDSAVYYCAYYDYDGFFDVWGTGTTVTVSS VL: DIVLTQSPASLDVSLGQRATISCRASKSVSTSGYSYMHWYQQKSGQPPKLLIYLASNLESGVPARFSGSGSGTHFTLNIHPVEEEDAATYYCQHSRELPYTFGGGTKLEIK	–	–	–	–	–	–	–	–	–	–	–	–	no binding (tested: 10 µg/mL)	no binding (tested: about 800 ng/well)

Source: patent US20220017612A1 (TILOS THERAPEUTICS, published 2022)
